Measured values from the supplement of paper PMC12764529.
± gives the half width of the 95% confidence interval.

What was measured:
[1] = folding stability dG unfold (combined trypsin and chymotrypsin); higher = more stable
Summary of the method: (§1)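 K50 was inferred by Bayesian fitting of sequencing counts obtained after protease digestion of designed mini-proteins. Unfolding free energy was derived by comparison with a sequence-predicted unfolded-state K50 and a shared folded-state K50, for each protease or both combined. The mini-proteins were under 80 residues, had no cysteine, were carried in a PA-tagged cDNA display construct, and were kept only if AlphaFold2 dimer inter-PAE exceeded 15.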

[2] = folding stability dG unfold from trypsin proteolysis; higher = more stable
Summary of the method: as §1

[3] = folding stability dG unfold from chymotrypsin proteolysis; higher = more stable
Summary of the method: as §1

| Sequence | folding stability dG unfold [1] | folding stability dG unfold [2] | folding stability dG unfold [3] |
| --- | --- | --- | --- |
| SAGGSAGGSAGGPDAAPSAVREYVLVTVPVYAENGTPLGPVTVVAPASVSLAAVADAVFNSAGGSAGGSAGG [r7_109_TrMRF] | 0.399 ± 0.11 kcal/mol | 0.292 ± 0.077 kcal/mol | 0.368 ± 0.19 kcal/mol |
| SAEVEIEVVEKDGKLYLVIRVRFPPGLKPGDKVTLTLTLPNGAKVTITRDKDGTRYITIVVELKDLEKLSAG [r14_754_TrROS_Hall] | 4.69 ± 0.22 kcal/mol | 3.94 ± 0.41 kcal/mol | 5.23 ± 0.13 kcal/mol |
| SAGGSAGGSAKEIEVRVEKDEETGKYRVTIRVDGKEIEIEVDVPKTLEEAERKAKELLKELSAGGSAGGSAG [r3_104_TrROS_Hall] | 2.66 ± 0.066 kcal/mol | 2.53 ± 0.082 kcal/mol | 2.77 ± 0.035 kcal/mol |
| SAGSAEELKEKIREELRERLAKELGYPNIEIKKVEVLKYDPETGTITVKVELKLPDGKELTLTITVPVKSAG [r5_20_JUSTAS] | 3.9 ± 0.41 kcal/mol | 4.27 ± 0.34 kcal/mol | 3.63 ± 0.29 kcal/mol |
| SAGGSAGGSAGKEYIVRITLPNGKVYEFPGKLEDVVKALPPEYKDAVIEVFDPRTGKRVSSAGGSAGGSAGG [r11_353_TrMRF] | 3.84 ± 0.089 kcal/mol | 2.53 ± 0.049 kcal/mol | 4.26 ± 0.057 kcal/mol |
| SAGGSAGGKKTYRLEITIYNKDGKEIKKIEIEAETEEEALEAAKKLQEEAKKKGLKVEIKVEKVSAGGSAGG [r6_285_TrROS_Hall] | 4.72 ± 0.15 kcal/mol | 4.2 ± 0.21 kcal/mol | 4.7 ± 0.068 kcal/mol |
| SAGGSAGGFKIPPGKTIMIQYPDGWMWRIKVKDGNTHMFKSPEEIEKLLNKPGFEIEIEWFPLDSAGGSAGG [r6_433_TrROS] | 1.67 ± 0.19 kcal/mol | 1.63 ± 0.083 kcal/mol | 1.74 ± 0.24 kcal/mol |
| SAGGSAGGSKKVKVTIEYDKETGVVKVTVEDPETGEKYTVTAKFEFDKNGKLVKVEVVSIEKESAGGSAGGS [r12_791_TrROS_Hall] | 3.67 ± 0.11 kcal/mol | 2.71 ± 0.14 kcal/mol | 3.94 ± 0.11 kcal/mol |
| SAGGSADIKIIKLPEKNELVILVPGEFDENVPLVLHDEGGPSWEVVDARVERVGDDLIITAKVRKSSAGGSA [r15_838_TrMRF] | 0.691 ± 0.099 kcal/mol | 0.594 ± 0.037 kcal/mol | 0.701 ± 0.049 kcal/mol |
| SAGGSASMTIVPVKSEEELEAYIKTKNPKVFLLPLPDGTELVVKVNVDDPSKIEKVSLSKPEEILLSAGGSA [r15_11_JUSTAS] | 0.622 ± 0.25 kcal/mol | 0.228 ± 0.12 kcal/mol | 0.664 ± 0.16 kcal/mol |
| SAGGSAGGSAGGKTYRVKVRIYNPETGEVLEIEVEVETDTEEEAKRAAENLARELLKKSSAGGSAGGSAGGS [r10_863_TrROS_Hall] | 3.47 ± 0.12 kcal/mol | 2.69 ± 0.045 kcal/mol | 3.7 ± 0.058 kcal/mol |
| SAGSIEAAVEALEKELREKGYKVSVELVETDPSDPNRLNLVIRVTVEGFSPESKPLGKKEETYVIEGGSAGG [r19_418_JUSTAS] | 1.28 ± 0.14 kcal/mol | 1.12 ± 0.031 kcal/mol | 1.45 ± 0.069 kcal/mol |
| SAGEIKITVEEVEDGELLVTVEITAESKEEALKALEDLIRELFGEDVEIVSVEFDEETKRIRVTIRIKPSAG [r5_810_TrROS_Hall] | 4.35 ± 0.35 kcal/mol | 4.25 ± 0.21 kcal/mol | 3.51 ± 0.29 kcal/mol |
| SAGGSAGGWRIKIMPMGGKKKKIPIDSPEEIIDKIQKEAKEDGLPGNVRITVEYNGQKRTFTIRSAGGSAGG [r6_532_TrROS] | 0.658 ± 0.2 kcal/mol | 1.41 ± 0.16 kcal/mol | -0.203 ± 0.6 kcal/mol |
| SAGGSAGGVVLEVEIPYESEEEAREKAEEVLKELGLPESAKITKIEFYPGPGEKKSVKVYIKLESAGGSAGG [r6_284_JUSTAS] | 1.83 ± 0.059 kcal/mol | 1.92 ± 0.06 kcal/mol | 1.73 ± 0.018 kcal/mol |
| SMTITVKPENIEEVLAQIKALAAKHPKPVTITLEMSPEEVEKLRKALEDAGYKVEVDEKTGKVRIEIKVPSA [r9_600_TrROS_Hall] | 3.63 ± 0.074 kcal/mol | 4.52 ± 0.22 kcal/mol | 3.05 ± 0.096 kcal/mol |
| SAGGSAGGEMTAEELAEKLAEELKEKGYEVEVEVVEVEVEEDTVRIKIKLKDGRELEIELKIEPSAGGSAGG [r6_617_TrROS_Hall] | 2.74 ± 0.25 kcal/mol | 2.58 ± 0.16 kcal/mol | 2.79 ± 0.28 kcal/mol |
| ATVTITDVSFDPETNTITVTVTVTGPDGTTTTFTATFRIEPAPPPAPPAPVYVVDDDGKVYNLDTGEWKDVS [r1_270_TrROS_Hall] | 2.21 ± 0.054 kcal/mol | 2.12 ± 0.048 kcal/mol | 2.3 ± 0.037 kcal/mol |
| SAGGSAGGEEAPPPPVTVTVTIEVEENEDGTLTVRIEVRDEATGETRTITVTMTLEELEELAKASAGGSAGG [r6_995_TrROS_Hall] | 2.78 ± 0.22 kcal/mol | 2.78 ± 0.11 kcal/mol | 2.56 ± 0.13 kcal/mol |
| SAGGSAGGSAGGGKLRIKLYHPETGKISEIEVEVPDKPLEEVLEELEKELGVEVVDASLESAGGSAGGSAGG [r7_590_TrMRF] | 1.44 ± 0.14 kcal/mol | 0.941 ± 0.054 kcal/mol | 1.68 ± 0.045 kcal/mol |
| SAGGLEEKILEAVKNMSPEEPVVEREVELPDGKLKVTVTRDGLPYTVTITRTNPDGTTTTTTTTILLSAGGS [r16_642_JUSTAS] | 2.34 ± 0.12 kcal/mol | 2.46 ± 0.16 kcal/mol | 2.37 ± 0.046 kcal/mol |

| Sequence | folding stability dG unfold [1] | folding stability dG unfold [2] | folding stability dG unfold [3] |
| --- | --- | --- | --- |
| SAGGSPIISTEKSSSGVTTITFPDGTVVTEVTTPLPDGTVLTTTTVTPPNAPVSTTTTTDPVPPGLPSAGGS [r16_211_JUSTAS] | 0.767 ± 0.062 kcal/mol | 0.775 ± 0.062 kcal/mol | 0.702 ± 0.027 kcal/mol |
| SAGNKIEIEPVNYEPMPNGYYRVTARVTIENPNNKKPWDIDVEAYYPMDPNGQPMNVDEIAKEAIKKIFSAG [r5_604_TrROS] | 1.07 ± 0.24 kcal/mol | 0.624 ± 0.098 kcal/mol | 1.36 ± 0.11 kcal/mol |
| SAGGSAGGSAMRLEIELENGLKIEIELEVNEDGELKMKIKIEPLPPVPEVVVTKVVKLEEESAGGSAGGSAG [r3_15_TrROS_Hall] | 1.98 ± 0.39 kcal/mol | 1.72 ± 0.29 kcal/mol | 1.69 ± 0.12 kcal/mol |
| SEMSVEEILKKIAEELLKKNPNKEVTKEIEIEFEKPDPEGKRLLKEKVKATIKVTPDKIEILSESREILLSA [r9_361_JUSTAS] | 1.31 ± 0.18 kcal/mol | 1.52 ± 0.066 kcal/mol | 1.07 ± 0.054 kcal/mol |
| SAGGSAGGSAGGSTRDFLVKDPSNGQWYKVTATTDPAGAVTITFPETGEVVPLEGLVVSPSAGGSAGGSAGG [r11_301_JUSTAS] | 1.43 ± 0.042 kcal/mol | 1.47 ± 0.046 kcal/mol | 1.338 ± 0.012 kcal/mol |
| SVPVAPDKTYEIENIEEGNYLIKGLTLTPLPDGSVKIDKDIEPIEIPPKPPPLKYDPVKGGFIKPNDPLLSA [r9_603_JUSTAS] | 0.434 ± 0.14 kcal/mol | 0.319 ± 0.08 kcal/mol | 0.592 ± 0.19 kcal/mol |
| SPAAELARRLFEELGLEAELVSVDPERRRVTFRVRHPDRAPLLLEVVYDPERPVFAIALNPETGRAVVPVSA [r9_1119_TrMRF] | 2.73 ± 0.1 kcal/mol | 1.8 ± 0.039 kcal/mol | 3.11 ± 0.036 kcal/mol |
| SAGGKTYKIKVTVEVKNENGETEKKEYVIEVKENKTPEEIAEELKKKLGVEKVEIVDPKTGKKYTIELSAGG [r13_663_TrROS_Hall] | 2.83 ± 0.084 kcal/mol | 1.9 ± 0.052 kcal/mol | 3.185 ± 0.029 kcal/mol |
| SAGGATPLPDGGYRLTYTVKLSPSESVEDAPKAAAALAEKYGVTPVAITVDPSTGTVTIDILLPPEVRSAGG [r13_178_JUSTAS] | 1.44 ± 0.095 kcal/mol | 1.01 ± 0.046 kcal/mol | 1.68 ± 0.11 kcal/mol |
| SAETKAEVFRFGDVLVVVTEERVTTPDGSERPVYTVTLLVYDPSTGKWTPFSRPFSSKEDAAKALSSGVSAG [r14_500_TrMRF] | 1.98 ± 0.15 kcal/mol | 1.52 ± 0.07 kcal/mol | 2.22 ± 0.083 kcal/mol |
| SAGGSAGGSAGAAPDGETVRITAVFVNPETQEVFVVEATINPDGELTMEVKEVFKLPEGLSAGGSAGGSAGG [r11_226_TrROS_Hall] | 2.36 ± 0.068 kcal/mol | 1.42 ± 0.033 kcal/mol | 2.782 ± 0.017 kcal/mol |
| SAGGSAGGSAGGSMPENLVTITTETTVVKSPLANPVNESPVWEVEVISSPVTVVPPSLLSAGGSAGGSAGGS [r4_417_JUSTAS] | 0.812 ± 0.1 kcal/mol | 1.25 ± 0.087 kcal/mol | 0.0877 ± 0.12 kcal/mol |
| SHMVTVTIYKNGVKVKETEIPLEEVEKMPEEEIIEFAAEIAKKNPGVNYTFTITRPSGPSTVSIDGPEKLKS [r1_477_JUSTAS] | 1.28 ± 0.21 kcal/mol | 0.762 ± 0.12 kcal/mol | 1.55 ± 0.14 kcal/mol |
| SAGGSAGGSAGGWDVEIEPFPDGFIFITAEGPNGRKLVIVVMVVPEGKLMYMIVPLDDLSAGGSAGGSAGGS [r10_140_TrROS] | 3.34 ± 0.19 kcal/mol | 2.35 ± 0.095 kcal/mol | 3.71 ± 0.097 kcal/mol |
| SAGGSAGGAKPPKTVTVKVEVTNADGETQTRTVTLTNLPKDLKPGDTVTLPETGQTARIVEITPSAGGSAGG [r6_560_TrROS_Hall] | 3.17 ± 0.1 kcal/mol | 3.27 ± 0.078 kcal/mol | 3.02 ± 0.097 kcal/mol |
| SAGGEKVKLRIYVYRRTVERDPATGELRERYELVEEIEIEVEPGETLEDILAKLKLPPGWRIVRVERESAGG [r13_716_TrROS_Hall] | 5.24 ± 0.076 kcal/mol | 4.39 ± 0.091 kcal/mol | 5.424 ± 0.053 kcal/mol |
| SAGGSAGGMKEITITNENGETLRIKVFNKETGEEKEIEFPAGMSLEDILKKLKEEEGLEVEIEPSAGGSAGG [r6_202_TrROS_Hall] | 3.01 ± 0.16 kcal/mol | 2.27 ± 0.14 kcal/mol | 3.16 ± 0.071 kcal/mol |
| SAGGNIKVRREPRPNGQYRVKITIPDPDGKPIEIEYRMPPGMDSPEQAQKEAIEVVKEFAKKHNIKISAGGS [r8_464_TrROS] | 0.605 ± 0.21 kcal/mol | 0.423 ± 0.17 kcal/mol | 0.733 ± 0.17 kcal/mol |
| SAGGEAEVVARAEVTLPDGVKVEVEVVRVDGKLVVRVRVEVRLPPPPPPPPPPLPPLSEEERKKLAEASAGG [r13_760_TrROS_Hall] | 2.18 ± 0.22 kcal/mol | 2.09 ± 0.091 kcal/mol | 2.09 ± 0.16 kcal/mol |
| SAGGSAGGSAGKIEIIKDKKNGKYTVKIRNKDGEEIEIEVDSLEELEELAKKLNIEVEVESAGGSAGGSAGG [r11_1049_TrROS_Hall] | 3.18 ± 0.15 kcal/mol | 2.33 ± 0.16 kcal/mol | 3.4 ± 0.21 kcal/mol |
